For assay [1], the target named is T1, E. coli-expressed recombinant human IL-13 (human, UniProt P35225 35-146). As to the kind of experiment: cell-based or functional assay.
Assay [2] deals with mammalian-expressed (CHO cell) human IL-13 (human, UniProt P35225 35-146, limits assumed). Kind of assay: cell-based or functional assay.
Assay [3] addresses T1, E. coli-expressed recombinant human …. As to the kind of experiment: human IL-13 binding sandwich ELISA. (ELISA stands for enzyme-linked immunosorbent assay.)
Assay [4] deals with T2, alanine scanning peptide 1 (parental sequence peptide) (human, N-terminal biotin).
T2 construct: also called parental peptide
T2 peptide: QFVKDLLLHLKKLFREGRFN
As to the kind of experiment: alanine scanning peptide ELISA, n=2. The source says: (§1) An ELISA method was used to detect binding of immobilised biotinylated peptide to the parental mAb 6A1 and L1+A1.
(§2) This was to determine if there was any major plate-to-plate variation and in both cases, there was no apparent variation.

Assay [5] deals with T3, alanine scanning peptide 62 (human, N-terminal biotin).
T3 peptide: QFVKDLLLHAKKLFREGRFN
Kind of assay: alanine scanning peptide ELISA, n=2.
Text: as §1, §2

Assay [6] deals with T4, alanine scanning peptide 63 (human, N-terminal biotin).
T4 construct: the entry already carries the change; also called K103A peptide
T4 peptide: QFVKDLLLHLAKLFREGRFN
Kind of assay: alanine scanning peptide ELISA, n=2.
Text: as §1, §2

Assay [7] concerns the target T5, alanine scanning peptide 64 (human, N-terminal biotin).
T5 construct: the entry already carries the change; also called K104A peptide
T5 peptide: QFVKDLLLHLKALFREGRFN
Kind of assay: alanine scanning peptide ELISA, n=2.
Text: as §1, §2

Assay [8] concerns the target T6, alanine scanning peptide 65 (human, N-terminal biotin).
T6 construct: the entry already carries the change; also called L105A peptide
T6 peptide: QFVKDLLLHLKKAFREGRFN
Kind of assay: alanine scanning peptide ELISA, n=2.
Text: as §1, §2

For assay [9], the target named is T7, alanine scanning peptide 66 (human, N-terminal biotin).
T7 construct: the entry already carries the change; also called F106A peptide
T7 peptide: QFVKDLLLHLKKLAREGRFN
As to the kind of experiment: alanine scanning peptide ELISA, n=2.
Text: as §1, §2

Assay [10] concerns the target T8, alanine scanning peptide 67 (human, N-terminal biotin).
T8 construct: the entry already carries the change; also called R107A peptide
T8 peptide: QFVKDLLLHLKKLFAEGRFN
As to the kind of experiment: alanine scanning peptide ELISA, n=2.
Text: as §1, §2

The target in assay [11] is T9, alanine scanning peptide 68 (human, N-terminal biotin).
T9 peptide: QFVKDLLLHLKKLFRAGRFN
Kind of assay: alanine scanning peptide ELISA, n=2.
Text: as §1, §2

In assay [12] the target is T10, E. coli-expressed recombinant cynomolgus IL-13 (cynomolgus, UniProt Q5I6E4 21-132 (Macaca thibetana entry)).
T10 construct: also called cyno IL13 (CA); cIL-13
T10 chain: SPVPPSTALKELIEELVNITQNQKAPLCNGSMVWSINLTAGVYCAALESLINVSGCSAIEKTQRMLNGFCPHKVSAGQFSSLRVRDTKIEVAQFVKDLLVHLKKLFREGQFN
Kind of assay: cynomolgus IL-13 binding sandwich ELISA.

For assay [13], the target named is T1, E. coli-expressed recombinant human …. Kind of assay: BIAcore analysis 1, antibody captured, IL-13 in solution. Here is the method:
(§3) Completed for both human and cynomolgus IL-13 (E. coli-expressed protein). The quoted KD values are the average from 5 different IL-13 concentration curves (done in triplicate). Note that mass transfer issues were apparent in this analysis and that a modified experimental protocol (to correct for this issue) has been completed in analysis 4 (where no mass transfer issues were present).
(§4) The kinetics analysis was performed on a Biacore 3000 machine, using an antibody capture method. Briefly, for the chimeric 6A1 and humanised antibody constructs Protein A capture was used, whilst for the parental murine 6A1 antibody, capture was by a anti-mouse Fc antibody supplied by Biacore. Briefly, the method is as follows, the capture ligand was immobilised to a CM5 Biosensor chip by primary amine coupling in accordance with Biacore standard protocols and using the reagents supplied in Biacores' primary amine coupling kit. The method involves activation CM5 sensor surface by passing a solution of 50 mM N-hydroxy-succinimide (NHS) and 200 mM N-ethyl-N′-dimethylaminopropyl […] (EDC) over the surface. Then, the capture ligand (dissolved in acetate buffer pH5 or pH4.5) was coupled to the activated sensor surface after which any still activated esters were blocked by an injection of 1M ethanolamine hydrochloride, pH8.5.
(§5) The candidate antibody was then passed over the Protein A or anti-mouse Fc antibody surface, depending on whether it was human or mouse in origin and captured. Once a stable binding signal was seen IL13 was passed over the captured antibody surface at various defined concentrations. The subsequent binding curves were analysed with Biacore analysis software BIAeval v4.1 to determine kinetics. The experiments were carried out using Biacore HBS-EP buffer.

Assay [14] concerns the target T10, E. coli-expressed recombinant …. Described as above. On the procedure:
as §3, §4, §5

Assay [15] deals with T11, native (PBMC derived) human IL-13 (human, UniProt P35225 35-146, limits assumed).
T11 construct: IL-13 in supernatant of stimulated human CD4+ Th2 cells; also called native human IL-13; Native IL-13
As to the kind of experiment: ELISA on Th2 cell supernatant read against a standard curve.

The target in assay [16] is T12, 16mer biotinylated human IL-13 peptide number 24 (human, N-terminal biotin; C-terminal amide).
T12 construct: format Biotin-SGSG-PEPTIDE-amide; also called Peptide 24
T12 peptide: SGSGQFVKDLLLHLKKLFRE
Kind of assay: BIAcore analysis 3, antibody over biotinylated peptide on SA chip. Here is the method: Completed for the 16mer biotinylated human IL-13 peptide number 24 (identified as the linear binding epitope for parental mAb 6A1, see section 6.7). Note that the absolute KD values obtained for binding to peptide ligands are often quite different to those seen for binding to whole protein targets.
The kinetics analysis was performed on a Biacore 3000 machine using direct binding of antibody to immobilised IL-13 peptide. Briefly, IL-13 biotinylated peptide was captured using a Biacore SA (strepavidin) Biosensor chip. The antibodies were then passed over the sensor surface at various concentrations. The subsequent binding curves were analysed with Biacore analysis software BIAeval 4.1 to determine kinetics. The experiment was carried out using Biacore HBS-EP buffer

The target in assay [17] is T13, E. coli-expressed recombinant det-1 tagged human IL-13 (human, UniProt P35225 35-146).
T13 construct: also called Det-1 tagged human IL-13 (made in-house); not shown: det-1 tag
Kind of assay: competition ELISA: inhibition of det-1 tagged human IL-13 binding to human IL-13Rα1-Fc.

T1 sequence (P35225 other isoform, or with tags, fused parts or gaps): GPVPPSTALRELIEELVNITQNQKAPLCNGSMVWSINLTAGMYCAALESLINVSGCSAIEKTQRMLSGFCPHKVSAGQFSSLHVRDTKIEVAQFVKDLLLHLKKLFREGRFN
T13 sequence (P35225 other isoform, or with tags, fused parts or gaps): as above
T11 sequence (P35225 other isoform, or with tags, fused parts or gaps limits assumed): as the sequence (P35225 other isoform, or with tags, fused parts or gaps) above
mammalian-expressed (CHO cell) human IL-13, sequence (P35225 other isoform, or with tags, fused parts or gaps limits assumed): as the sequence (P35225 other isoform, or with tags, fused parts or gaps) above

B1: L1+A1 (antibody, human IgG1, kappa, V domains shown)
VH: QVQLVQSGAEVKKPGSSVKVSCKASGFYIKDTYMHWVRQAPGQGLEWMGTIDPANGNTKYVPKFQGRVTITADESTSTAYMELSSLRSEDTAVYYCARSIYDDYHYDDYYAMDYWGQGTLVTVSS
VL: DIVMTQSPLSLPVTPGEPASISCRSSQNIVHINGNTYLEWYLQKPGQSPRLLIYKISDRFSGVPDRFSGSGSGTDFTLKISRVEADDVGIYYCFQGSHVPWTFGQGTKLEIKR
notes: Humanised 6A1, VH construct A1 and VL construct L1, human gamma1 wild type / kappa constant regions; also called A1L1; humanised anti-IL-13 mAb L1+A1
Broadly, the EC50 is the concentration giving half of the maximal effect. A word on the Kd: it is the constant that tells how readily two partners part at equilibrium. In general, koff refers to the first-order rate constant of dissociation. The term kon denotes the rate constant with which the complex forms. What is called IC50 is the point on the concentration scale where inhibition reaches its midpoint. B1: the results for the “Mean ND50 for 2 assays” value in assay [1] and in assay [2] were 0.428 µg/mL and 0.975 µg/mL, respectively. For the same molecule, the EC50 in assay [3] is 0.018 µg/mL; in assay [12] it was 0.021 µg/mL. For the same molecule, the “Average A490” value in assay [4] stood at 2.85 A490; in [5], 2.83 A490; in [6], 2.65 A490; in [7], 1.82 A490; in assay [8], 3.02 A490; in assay [9], 2.84 A490. The “Average A490” value was 0.816 A490 in [10] and 2.81 A490 in assay [11]. In addition, the values for the Kd in [13], in assay [14] and in assay [16] were 0.3 nM, 0.035 nM and 9.03 nM, respectively. For the same molecule, the off-rate (koff) is 0.000155 s⁻¹ in assay [13], 1.55e-05 s⁻¹ in assay [14] and 0.0017 s⁻¹ in assay [16]. Moreover, the kon in [13] amounted to 507000 M⁻¹ s⁻¹; in assay [14], 446000 M⁻¹ s⁻¹; in assay [16] it was 195000 M⁻¹ s⁻¹. Also, the “Native IL-13 (ng/ml) detected in Th2 supernatant” value in [15] turned out to be 25.1 ng/mL. Also, the half-maximal inhibitory concentration (IC50) in assay [17] came to 0.044 µg/mL.

B2: monoclonal antibody 6A1 (antibody, IgG1, V domains shown)
VH: EIQLQQSVAELVRPGASVRLSCTASGFYIKDTYMHWVIQRPEQGLEWIGTIDPANGNTKYVPKFQGKATITADTSSNTAYLRLSSLTSEDTAIYYCARSIYDDYHYDDYYAMDYWGQGTSVTVSS
VL: DVLMTQTPLSLPVSLGDQASISCRSSQNIVHINGNTYLEWYLQKPGQSPKLLIYKISDRFSGVPDRFSGSGSGTDFTLKISRVEAEDLGVYYCFQGSHVPWTFGGGTKLEIK
notes: also called 6A1 parental mAb; parental mouse mAb 6A1
Consider B2, for which the “Mean ND50 for 2 assays” value turned out to be 0.193 µg/mL in [1] and 0.44 µg/mL in [2]. Moreover, the 50% effective concentration (EC50) in assay [3] came to 0.049 µg/mL; in assay [12] it was 0.039 µg/mL. Also, the “Average A490” value in [4] came to 3.54 A490; in assay [5], 3.49 A490; in assay [6] it was 3.28 A490; in assay [7], 1.47 A490; in [8] it was 3.85 A490; in [9], 3.6 A490. Further, the “Average A490” value in assay [10] amounted to 0.595 A490; in assay [11], 3.58 A490. The results for the dissociation constant (Kd) in assay [13], in [14] and in assay [16] were 0.035 nM, 0.061 nM and 3.11 nM, respectively. Moreover, the koff in [13] worked out at 6.78e-05 s⁻¹; in assay [14], 5.6e-05 s⁻¹; in [16], 0.000915 s⁻¹. The kon in [13] was determined as 1.96e+06 M⁻¹ s⁻¹; in assay [14], 914000 M⁻¹ s⁻¹; in [16], 295000 M⁻¹ s⁻¹. Besides, in [15], the “Native IL-13 (ng/ml) detected in Th2 supernatant” value is 22.5 ng/mL. Besides, the concentration for half-maximal inhibition (IC50) in assay [17] was found to be 0.039 µg/mL.

The record behind these values is US20110243928A1 (published 2011).
